Holding throughout (test): purified protein
Common to all, as to assay type: biochemical, Shewanella oneidensis
Holding throughout (details): 25 °C, 200 mM sodium phosphate, pH 7.5 in table title, pH 7.0 in methods

Substrate in series [1]: CC(=O)SCCNC(=O)CCNC(=O)[C@H](O)C(C)(C)COP(=O)(O)OP(=O)(O)OC[C@H]1O[C@@H](n2cnc3c(N)ncnc32)[C@H](O)[C@@H]1OP(=O)(O)O
Substrate in series [2]: CCC(=O)SCCNC(=O)CCNC(=O)[C@H](O)C(C)(C)COP(=O)(O)OP(=O)(O)OC[C@H]1O[C@@H](n2cnc3c(N)ncnc32)[C@H](O)[C@@H]1OP(=O)(O)O
Substrate in series [3]: CCCC(=O)SCCNC(=O)CCNC(=O)[C@H](O)C(C)(C)COP(=O)(O)OP(=O)(O)OC[C@H]1O[C@@H](n2cnc3c(N)ncnc32)[C@H](O)[C@@H]1OP(=O)(O)O
Substrate in series [4]: CCCCCCCC(=O)SCCNC(=O)CCNC(=O)[C@H](O)C(C)(C)COP(=O)(O)OP(=O)(O)OC[C@H]1O[C@@H](n2cnc3c(N)ncnc32)[C@H](O)[C@@H]1OP(=O)(O)O

B1: SoYbgC (S. oneidensis YbgC) (Shewanella oneidensis MR-1) (protein)
chain: MTFNWPISVYYEDTDAGGVVYHSNYLNFFERARTEWLKALGVSQTALLADDTAFVVKRAELDFKKAARFEQNLIVETKVIELKKASLVFHQRLVDHLGDCYCEGTVLVACVALSRMRPRAIPLNIVQEFDSAS
Take B1: the Km is 3.5 ± 0.4 µM in “purified protein [1]”, 4.8 ± 0.6 µM in “purified protein [2]”, 17 ± 2 µM in “purified protein [3]” and 34 ± 4 µM in the series “purified protein [4]”. The kcat in the series “purified protein [1]” came out at 8 ± 0.7 s⁻¹; in “purified protein [2]”, 3.9 ± 5 s⁻¹; in “purified protein [3]”, 1.3 ± 0.1 s⁻¹; in the series “purified protein [4]”, 0.15 ± 0.01 s⁻¹. Further, the kcat/Km worked out at 2.3e+06 M⁻¹ s⁻¹ in “purified protein [1]”, 810000 M⁻¹ s⁻¹ in “purified protein [2]”, 76000 M⁻¹ s⁻¹ in “purified protein [3]” and 4400 M⁻¹ s⁻¹ in the series “purified protein [4]”.

B2: SoYbgC (S. oneidensis YbgC) (Shewanella oneidensis MR-1; D15N) (protein)
chain: MTFNWPISVYYEDTNAGGVVYHSNYLNFFERARTEWLKALGVSQTALLADDTAFVVKRAELDFKKAARFEQNLIVETKVIELKKASLVFHQRLVDHLGDCYCEGTVLVACVALSRMRPRAIPLNIVQEFDSAS
On to B2, for which, in “purified protein [1]”, the Km is given as 231 ± 37 µM.

(Values after article PMC5479800, “Thioesterase YbgC affects motility by modulating c-di-GMP levels in Shewanella oneidensis” (Scientific Reports, 2017).)
